In patent publication US20050226885A1:
Where “and” joins values, the source holds several entries; their conditions need not be identical. Equal entries are not always repeated.

Biological target: C215 antigen (human GA-733 antigen recognized by the C215 mAb) (human) (UniProt P16422)
Experiment: FACS on Colo205 cells

Chain of UniProt P16422 (P16422 24-314): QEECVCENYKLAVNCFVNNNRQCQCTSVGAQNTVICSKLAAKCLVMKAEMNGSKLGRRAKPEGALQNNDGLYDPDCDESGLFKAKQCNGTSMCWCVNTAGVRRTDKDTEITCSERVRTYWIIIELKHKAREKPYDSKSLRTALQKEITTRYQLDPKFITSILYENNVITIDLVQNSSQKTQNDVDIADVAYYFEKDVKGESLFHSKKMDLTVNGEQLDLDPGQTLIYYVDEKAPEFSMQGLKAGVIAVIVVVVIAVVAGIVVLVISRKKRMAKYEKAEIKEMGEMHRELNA

CD80-C215Fab (from UniProt P33681 35-242)
fold lower binding than that of C215Fab-SEA: 50 fold lower and 100 fold lower | fold reduction of binding compared to C215Fab-SEA: 100 fold reduced
